Results from patent publication US20170008975A1, “Anti-Tissue Inhibitor of Metalloproteinase-4 (Timp-4) Antibodies and Methods of Use Thereof” (LANKENAU INSTITUTE FOR MEDICAL RESEARCH, priority 2014, published 2017).
“Also recorded” adds a separate entry of the source.

T1: CD63 (Homo sapiens, UniProt P08962)
T1 construct: endogenous in cells; host or cells: MDA-MB-468
T1 sequence (P08962 1-238): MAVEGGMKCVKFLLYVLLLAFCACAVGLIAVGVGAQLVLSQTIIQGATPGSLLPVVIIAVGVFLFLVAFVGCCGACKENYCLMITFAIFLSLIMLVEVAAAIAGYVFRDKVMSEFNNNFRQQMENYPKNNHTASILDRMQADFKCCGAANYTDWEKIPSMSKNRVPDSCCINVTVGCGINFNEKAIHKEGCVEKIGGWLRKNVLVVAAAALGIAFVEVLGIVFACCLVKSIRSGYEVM

B1: TIMP-4: tissue inhibitor of metalloproteinase-4 protein (R&D Systems, Inc), added to media or given in slow-release pellets (protein, UniProt Q99727 30-224, looked up)
Metalloproteinase inhibitor 4: CSCAPAHPQQHICHSALVIRAKISSEKVVPASADPADTEKMLRYEIKQIKMFKGFEKVKDVQYIYTPFDSSLCGVKLEANSQKQYLLTGQVLSDGKVFIHLCNYIEPWEDLSLVQRESLNHHYHLNCGCQITTCYTVPCTISAPNECLWTDWLLERKLYGYQAQHYVCMKHVDGTCSWYRGHLPLRKEFVDIVQP

What was measured:
AKT = assay: Western blotting of AKT activation in breast cancer cell cultures; type: cell-based
From the text: TIMP-4 appears to induce PI3K/AKT signaling, a critically important cancer cell pathway (Cantley, L. C. (2002) Science, 296:1655-7; Lopez-Knowles et al. (2010) Int. J. Cancer, 126:1121-31), through binding to the tetraspanin CD63 (Jung et al. (2006) EMBO J., 25:3934-42) (FIG. 3). […] Prior to clinical use of Her-2 targeting therapy (Herceptin®), breast cancers that were positive for Her-2 were, like TNBCs, associated with fast growth rate, early recurrence and distant disease resulting in a prognosis of poor survival (Hsieh et al. (2007) Br. J. Cancer, 97:453-7).

[1] = tested on: triple-negative human breast cancer cell-line MDA-MB-468; assay: Growth of MDA-MB-468 in culture with or without 2 nM TIMP-4; type: cell-based; details: normal media supplemented with 2 nM TIMP-4
Method: (§1) MDA-MB-468 cell were compared to the CD63 negative SK-Br-3 cells using a modified Boyden chamber to assess invasion in absence (Ctrl) and presence of 2nM TIMP-4 (N=6). […] Clonogenic growth assay (Ayene et al. (2000) Int. J. Radiat. Biol., 76:1523-1531) was used to determine the survival advantage for MDA-MB-468 cells under elevtedTIMP-4 conditions after irradiation (N=3). […] This effect can be prevented by pre-treating the cells with LY294002. […] Further, cells cultured in normal medium began to detach and die as they reached contact inhibition (day 10), whereas cells in TIMP-4-supplemented media continued to survive and grow. Growth augmented by TIMP-4 could be blocked by the addition of the TIMP-4 mAb of the instant invention. Briefly, TIMP-4 mAbs were obtained by delivering a purified glutathione-S-transferase (GST) chimeric protein comprising the human full-length 224 amino acid TIMP-4 (GenBank Accession No. NM_003256.2).

MDA-MB-468 cells [2] = assay: MDA-MB-468 orthotopic xenograft in mammary fat pad of nude mice with TIMP-4 or placebo slow-release pellets; type: in vivo; details: TIMP-4 slow-release pellets implanted two weeks before cells
Method: FIGS. 7A and B show the effect of modulating TIMP-4 levels in a pilot animal study. Slow-release pellets were used to elevate the TIMP-4 (FIG. 7A) levels in the mammary fatpad (mfp) prior to implanting human TNBC cells. Placebo pellets (FIG. 7B) were used for control conditions. Once tumors were established, twice weekly doses of the anti-TIMP-4 or iso-type control mAb were administered during a two-week period (i.e. in total four treatments). Animals were followed for an additional two weeks post-treatment.
Inguinal mammary fat pads in nude mice were implanted with slow-release pellets (Innovative Research of America, Fla.) containing TIMP-4 to elevate its levels. Two weeks later, MDA-MB-468 cells were mixed with Matrigel™ (LDEV and phenol red free, BD Biosciences) and injected at the same site as an orthotopic xenograft. […] Tumor-bearing mice from both the groups shown were then randomly divided in half and treated by i.p. injection with 1 mg IgG of TIMP-4 mAb (clone 18:4-7) or a matched isotype control IgG2bk (BioXCell, N.H.), in sterile azide-free solution, administered twice weekly for 2 weeks. […] The antibody had no effect on animals without elevated TIMP-4 (FIG. 7B).

MDA-MB-468 cells [3] = assay: Clonogenic growth assay after irradiation; type: cell-based, human; details: elevated TIMP-4 conditions, N=3
Method: as §1

MDA-MB-468 cell = assay: Modified Boyden chamber invasion, MDA-MB-468; type: cell-based, human; details: 2nM TIMP-4 for 24 hours, N=6
Method: as §1

[4] = tested on: CD63 negative SK-Br-3 cells; assay: Modified Boyden chamber invasion, SK-Br-3; type: cell-based, human; details: 2nM TIMP-4 for 24 hours, N=6
Method: as §1

CD63 = biological target: T1, CD63; assay: Immunoprecipitation and immunofluorescence staining for CD63 binding; details: MDA-MB-468, 2nM TIMP-4
From the text: Human breast cancer cell-lines expressing the tetraspanin CD63 (Chirco et al. (2006) Cancer Met. Rev., 25:99-113), as determined by FACS analysis, include MDA-MB-468.

Molecule	activation of AKT (pAkt Ser473) (AKT)	growth rate of MDA-MB-468 [1]	tumor size and growth rate with TIMP-4 pellets versus placebo pellets (MDA-MB-468 cells [2])	survival of MDA-MB-468 cells after irradiation (MDA-MB-468 cells [3])	invasiveness of MDA-MB-468 (MDA-MB-468 cell)	invasiveness of SK-Br-3 [4]	binding to CD63 (CD63)
TIMP-1: member of the mammalian TIMP family, secreted circulating protein	can activate AKT	–	–	–	–	–	–
B1	can activate AKT; also recorded: sufficient to activate the PI3K/AKT pathway	increased growth rate; also recorded: relatively faster growth rate	Differences in tumor size and growth rate	increased survival	increased the invasiveness	did not increase the invasiveness	functional binding partner
